Results on eleven molecules are retold here after US20240252641A1 (TCR2 THERAPEUTICS, published 2024).

Where a chain is given by its changes, count along the chain named.

First the molecules themselves.
T1: human CD70, recombinant, N-terminally biotinylated (residues 39-193) (human, UniProt P32970 39-193, N-terminal biotin)
T1 construct: range 39-193; the same entry is used there; also called biotinylated human CD70; CD70 biotin
T1 sequence (looked up): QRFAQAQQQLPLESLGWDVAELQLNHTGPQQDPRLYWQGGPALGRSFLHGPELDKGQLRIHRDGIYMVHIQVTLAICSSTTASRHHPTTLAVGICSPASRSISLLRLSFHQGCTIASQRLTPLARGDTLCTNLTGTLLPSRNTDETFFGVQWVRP

T2: CD70 on cells (CHO-CD70, JVM-3, U266, Raji, THP-1, T cells) (human, UniProt P32970 1-193)
T2 construct: whole, on cells; also called cell-surface CD70
T2 sequence (looked up): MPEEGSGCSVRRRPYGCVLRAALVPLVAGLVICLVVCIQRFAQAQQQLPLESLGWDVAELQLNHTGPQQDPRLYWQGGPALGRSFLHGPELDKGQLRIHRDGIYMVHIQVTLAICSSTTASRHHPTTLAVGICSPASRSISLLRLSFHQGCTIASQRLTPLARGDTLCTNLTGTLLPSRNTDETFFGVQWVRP

B1: 53-TC7-VI-B06 (scFv)
scFv: EVQLLESGGGVVQPGRSLRLSCAASGFTFSSYGMHWVRQAPGKGLEWVAVISYDGSNKYYADSVKGRFTISRDNSKNTLYLQMNSLRAEDTAVYYCAKGELELTNWGQGTLVTVSSGGSGGSGGSGGSSYELTQPPSVSVAPGQTARITCGGNNIGSKSVHWYQQKSGQAPVLVVYDDTDRPSGTPERFSGSNSGNTATLTISGTQAMDEADYYCQAWDSSTAVFGTGTKVTVL
notes: His-tagged
B2: 50-TC7-III-A11 (scFv)
scFv: QVQLVQSGAEVKRPGASVKVSCKASGYTFTSYYMHWVRQAPGQGLEWMGIINPSGGSTSYAQKFQGRVTMTRDTSTSTVYMELSSLRSEDTAVYYCAIEPGYCSGGSCYPDAFDIWGQGTTVTVSSGGSGGSGGSGGSQSVLTQPPSASGTPGQRVTISCSGSSSNIGSDYVYWYQRVPGTAPKLLIYRDNQRPSGVPDRFSGSKSGTSASLAISGLRSDDEADYYCAAWDDSLSGWVFGGGTKVTVL
notes: His-tagged; also called 1985
B3: 13-TC7-V-H10 (scFv)
scFv: QVQLQQWGAGLLKPSETLSLTCAVYGGSFSGYYWSWIRQPPGKGLEWIGEINHSGSTNYNPSLKSRVTISVDTSKNQFSLKLSSVTAADTAVYYCARSRRPYWYFDLWGRGTLVTVSSGGSGGSGGSGGSQSALTQPASVSGSPGQSITISCTGTSSDVGGYNSVSWYRQHPGKAPKLMIYDVTNRPSGVSNRFSGSKSGNTASLTISGLQAEDEADYYCSSSSISATWVFGGGTKLTVL
notes: His-tagged
B4: 32-TC1.2-I-F07-6 (scFv)
scFv: QVQLVQSGAEVKKPGESLKISCKGSGYSFTSYWIGWVRQMPGKGLEWMGIIYPGESDTRYSPSFQGQVTISADKSISTAYLQWSSLKASDTAMYYCARRNYYDRSGYVDAFDIWGQGTMVTVSSGGSGGSGGSGGSSSELTQDPAVSVALGQTVRITCQGDSLRRFYASWHQQKPGQAPIVVMYAENNRPSGIPDRFSGSSSGNTASLTITGAQAEDEATYYCNSRDSSGNRHVFGTGTKLTVL
notes: His-tagged
B5: 37-TC7-VII-D05 (scFv)
scFv: QMQLVQSGGGVVQPGRSLRLSCAASGFTFSSYAMHWVRQAPGKGLEWVAVISYDGSNKYYADSVKGRFTISRDNSKNTLYLQMNSLRAEDTAVYYCARDALWDTATFDYWGQGTLVTVSSGGSGGSGGSGGSSSELTQDPAVSVALGQTVRITCQGDSLRSYYASWYQQKPGQAPVLVIYGKNNRPSGIPDRFSGSSSGNTASLTITGAQAEDEADYYCNSRDSSGNPWVFGGGTKLTVL
notes: His-tagged
B6: 4-TC4-I-G08 (scFv)
scFv: QVQLVQSGGGVVQPGRSLRLSCAASGFTFSSYAMHWVRQAPGKGLEWVAVISYDGSNKYYADSVKGRFTISRDNAKNSLYLQMNSLRDEDTAVYYCARDESFDYGVDVWGKGTTVTVSSGGSGGSGGSGGSSSELTQDPAVSVALGQTVRITCQGDSLRSYYASWYQQKPGQAPVLVIYGKNNRPSGIPDRFSGSSSGNTASLTITGAQAEDEADYYCNSRDSSGNHLVVFGGGTKLTVL
notes: His-tagged
B7: 49-TC4-XVI-F01 (scFv)
scFv: QVQLVESGGGVVQPGRSLRLSCAASGFTFSSYAMHWVRQAPGKGLEWVAVISYDGSNKYYADSVKGRFTISRDNSKNTLYLQMNSLRAEDTAVYYCARDSTQDYGMDVWGQGTMVTVSSGGSGGSGGSGGSSSELTQDPAVSVALGQTVRITCQGDSLRNYYASWYQQKPGQAPVLVFYGKNNRPSGIPDRFSGSSSGNTASLTITGAQAEDEADYYCNSRDSSGNHLVVFGGGTKLTVL
notes: His-tagged
B8: 42-TC4-VII-G08 (scFv)
scFv: B7 scFv with E6Q, S100L, T101S, Q102Y, M106F, V108Y, M114L, N160S, F178I, L237V
notes: His-tagged
B9: 16-TC4-I-C11 (scFv)
scFv: QVQLVQSGAEVKKPGSSVKVSCKASGGTFSSYAISWVRQAPGQGLEWMGWISAYNGNTNYAQKLQGRVTMTTDTSTSTAYMELRSLRSDDTAVYYCARVTPPGWLGNMDVWGKGTTVTVSSGGSGGSGGSGGSSYELMQSPSVSVAPGQTARITCGGRDIGSKSVHWYQQKPGQAPVLVVYDDSDRPSGIPERLSGSNFGNEATLTISRVEAGDEGDYFCQVWDSSTDVVFGGGTKVTVL
notes: His-tagged
B10: 60-TC7-VII-C02 (scFv)
scFv: QVQLQQWGAGLLKPSETLSLTCAVYGGSFSGYYWSWIRQPPGKGLEWIGEINHSGSTNYNPSLKSRVTISVDTSKNQFSLKLSSVTAADTAVYYCARSPLWFGPPDAFDIWGQGTMVTVSSGGSGGSGGSGGSQSALTQPPSASGSPGQSVSISCTGTSSDVGGYNYVSWYQQHPGKAPKLIIYDVDKRPSGIPERFSGSNSGNTATLTISGTQAMDEADYYCQAWDSSTEVVFGGGTKVTVL
notes: His-tagged
B11: 39-TC6-IV-B08 (scFv)
scFv: QVQLVESGGGVVQPGGSLRLSCAASGFTFSSYAMHWVRQAPGKGLEWVAVISYDGSNKYYADSVKGRFTISRDNSKNTLYLQMNSLRAEDTAVYYCARDGHPYYYGMDVWGQGTTVTVSSGGSGGSGGSGGSQSALTQPASVSGSPGQSITISCTGTSSDVGDYNYVSWYQHHPGKAPKLMIYDVSNRPSGVSNRFSGSKSGNTASLTISGLQAEDEADYYCGSYTGSDTWVFGGGTKVTVL
notes: His-tagged; also called 1885

The target of the first assay is T1, human CD70, recombinant, N-terminally …. The experiment in a line: SPR. Summed up: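 The scFv antibodies are human and were isolated by panning a naïve human library on the extracellular domain of CD70 (aa39-193). Their affinity (Kd) was measured by surface plasmon resonance analysis. The binding partner was recombinant human antigen biotinylated at the N-terminus.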
(In general: SPR reads the build-up and loss of mass on a sensor chip optically.)
B1: the Kd is 235 nM.
On the same count and under the same terms, the value for B2 was 4190 nM; that for B3 was 66.9 nM; that for B4 was 7.41 nM.
Same read-out and setting: the value for B5 was 5640 nM.
Same read-out and setting: then B6, with 1410 nM; and B7, with 1060 nM.
On to B8, for which the Kd was determined as 179 nM.
On the same count and under the same terms, the value for B9 was 40.2 nM; that for B10 was 135 nM; that for B11 was 2890 nM.

The target of a further assay is T2, CD70 on cells (CHO-CD70, JVM-3, U266, …). The experiment in a line: 1.25 µg/mL scFv on JVM-3 cells. The procedure, abridged:
(§1)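 Human scFv antibodies came from panning a naïve human library against the CD70 extracellular domain (aa39-193). Binding was recorded for each tumour cell line, both high CD70 expressors (CHO-CD70, JVM3, U266) and low CD70 expressors (CHO WT, K562). No detection method is stated.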
Molecule B1 yielded a cell binding of 1830.
On the same count and under the same terms, then B2, with 12200; and B3, with 87500.
In the case of B4, the cell binding came to 57300.
In turn, B5 registered a cell binding of 11000.
The same measure, in the same setting: the value for B6 was 34000; that for B7 was 5410.
On the same count and under the same terms, then B8, with 33900; and B9, with 103000.
The same measure, in the same setting: then B10, with 10800; and B11, with 25300.

The next assay concerns the target T1, human CD70, recombinant, N-terminally …. The experiment in a line: CD27 blocking ELISA, 3 µM scFv, strep/HRP. For orientation: ELISA stands for enzyme-linked immunosorbent assay.
In the case of B1, the strep/HRP was 1.44.
The same measure, in the same setting: then B2, with 0.868; and B3, with 1.38.
The same measure, in the same setting: then B4, with 0.113; and B5, with 0.655; and B6, with 1.03.
Still for that read-out and setting: then B7, with 1.29.
Take B8: the strep/HRP was 1.11.
With B9, the strep/HRP was determined as 1.43.
Same read-out and setting: the value for B10 was 1.58; that for B11 was 0.268.

The next assay shares this target. The experiment in a line: CD27 blocking ELISA, 3 µM scFv, anti-His/HRP. Further: unit not given here. On the procedure:
Human scFv antibodies binding CD70 were generated by panning a naïve human library with the extracellular domain (aa39-193) of CD70. 53 antibodies were identified. The ability of CD27 to block CD70 binding of the identified antibodies was measured by ELISA using two different assays. In the first assay, CD27 and his-tagged scFv anti-CD70 binders were simultaneously added to surface bound CD70, and the ability of the scFv binders to bind CD70 was detected with anti-His HRP. In the second assay, plate-bound CD70 was pre-incubated with CD27 for 30 minutes, and then additional CD27 and the his-tagged scFv anti-CD70 binder was added. The ability of the scFv binders to bind CD70 was detected with anti-His HRP. FIG. 34 is a schematic of the two different CD27 blocking assays. CD70 affinity was also measured by SPR analysis. scFv antibodies were also tested for their ability to bind tumor cell lines with high (CHO-CD70, JVM3, and U266) and low levels (CHO WT and K562 of CD70 expression. Results for 39 antibodies are shown in Table 1 below.
Consider B1, for which the “anti His/HRP” value was 1.38.
On the same count and under the same terms, then B2, with 2.25.
The same measure, in the same setting: then B3, with 1.97; and B4, with 2.42.
The same measure, in the same setting: the value for B5 was 2.28; that for B6 was 2.29.
On to B7, for which the “anti His/HRP” value stood at 2.12.
The same measure, in the same setting: the value for B8 was 2.34; that for B9 was 2.1; that for B10 was 1.27.
Same read-out and setting: the value for B11 was 2.97.

The next assay deals with T2, CD70 on cells (CHO-CD70, JVM-3, U266, …). Description: 1.25 µg/mL scFv on CHO-CD70 cells. Summed up: as §1
In turn, B1 showed a cell binding of 12200.
Molecule B2 had a cell binding of 122000.
On the same count and under the same terms, the value for B3 was 601000; that for B4 was 553000.
B5: the cell binding was 111000.
Still for that read-out and setting: the value for B6 was 387000; that for B7 was 134000; that for B8 was 364000.
In turn, B9 gave a cell binding of 660000.
On the same count and under the same terms, the value for B10 was 458000.
Molecule B11 yielded a cell binding of 52200.

The target is the same in the next assay. The experiment in a line: 1.25 µg/mL scFv on U266 cells. Summed up: as §1
B1 came in with a cell binding of 1170.
Same read-out and setting: then B2, with 45000; and B3, with 34300.
Molecule B4 returned a cell binding of 20700.
The same measure, in the same setting: the value for B5 was 15900.
Same read-out and setting: then B6, with 23500; and B7, with 2980; and B8, with 13100.
Same read-out and setting: then B9, with 51000; and B10, with 5040; and B11, with 35900.

A word on the Kd: it is the equilibrium constant for the complex coming apart.
